# Experimental data: article PMC7005700
# Tests used:
# [1] = target: USF-1 overexpressed in 293FT cells (UniProt P22415)
# [2] = target: USF-1 overexpressed in 293FT cells (UniProt P22415); remark: listed apart in the source
# USF-1 = USF-1 (UniProt P22415); experiment: co-immunoprecipitation, immunoblot; conditions: reference: wild type; sites T505
# USF-1 overexpressed in 293FT cells, sequence (P22415 whole entry): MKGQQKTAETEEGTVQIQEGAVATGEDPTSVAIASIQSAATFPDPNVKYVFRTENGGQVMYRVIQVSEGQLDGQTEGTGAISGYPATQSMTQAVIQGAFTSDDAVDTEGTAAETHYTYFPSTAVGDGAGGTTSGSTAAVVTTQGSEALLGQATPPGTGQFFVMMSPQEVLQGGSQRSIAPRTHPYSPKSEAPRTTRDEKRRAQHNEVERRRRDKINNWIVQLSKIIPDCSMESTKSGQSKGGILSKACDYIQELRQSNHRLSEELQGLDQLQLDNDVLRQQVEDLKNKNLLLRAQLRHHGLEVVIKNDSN
FAS promoter (-444-FAS promoter-luciferase) activity in 293FT cells co-transfected with JMJD1C along with USF-1 [1],ChIP-qPCR enrichment at the FAS promoter (FAS promoter luc construct) upon insulin treatment [2],binding against the reference (USF-1),Substance
27 fold,12 fold,–,"WT JMJD1C, Q15652 1-2540"
–,17 fold,–,"JMJD1C T505D mutant, Q15652 1-2540"
–,–,lost,JMJD1C (from UniProt Q15652) T505A
